Holding throughout (type): cell-based
Assay [1] has as its system Salmonella typhimurium (ATCC 1535). The assay can be described thus: Broth microdilution assay (MIC/MBC), planktonic bacteria. The protocol:
(§1) Antimicrobial activity of histone H5 against a variety of Gram-positive and Gram-negative planktonic bacteria was evaluated using a broth microdilution assay. The average minimum inhibitory concentration (MIC) and minimum bactericidal concentration (MBC) values (mean ± SD, n = 3) for six Gram-positive and four Gram-negative bacterial species are shown in Table 2. […] E. faecalis was the least susceptible to histone H5 inhibition, requiring over 32 µg/mL for complete bacterial growth inhibition which was the highest histone H5 concentration tested.
(§2) The bacterial strains tested in this study were Gram-positive bacteria (Bacillus cereus (ATCC 11778), methicillin-sensitive Staphylococcus aureus (ATCC 6538), methicillin-resistant Staphylococcus aureus (ATCC 29247), Listeria monocytogenes (ATCC 19112), Enterococcus faecalis (clinical isolate) and vancomycin-resistant Enterococcus (ATCC 51299)) and Gram-negative bacteria Escherichia coli K12 (ATCC 29425), Escherichia coli (O157:H7), Pseudomonas aeruginosa (ATCC 15442) and Salmonella typhimurium (ATCC 1535)). Bacterial colonies from glycerol stocks were plated on LB agar plates (BHI agar plates for L. monocytogenes) and incubated overnight at 37 °C. Single colonies from these plates were grown in 3 mL of LB broth (BHI broth for L. monocytogenes) overnight at 37 °C and shaken at 250 rpm. […] The bacterial suspension was pelleted at 3,000 × g, 4 °C for 10 minutes and washed with PBS (twice), and then adjusted to 10^5–10^6 CFUs/mL in PBS.
(§3) Supplementary Information
(§4) Broth microdilution assay
(§5) The protocol for this step of the project was based on established methods22. Histone H5 or the peptides were dissolved in sterile water, pH 7.4, serially two-fold diluted and aliquoted in a 1:1 (v/v) ratio with bacteria. Kanamycin or ampicillin served as a positive control for inhibition, and sterile water (pH 7.4) as a negative control for inhibition. The tubes were then incubated for 3 hours at 37°C an d shaken at 200 rpm. Next, 100 µL of each tube and 100µL of LB broth (BHI broth for L. monocytogenes) was plated in wells of a 96-well microplate. The microplate was incubated in the EON microplate reader overnight at 206 oscillations/min and at 37°C. During this period, the EON microplate spectrophotometer and Gen5 data analysis software (BioTek, Winooski, VT, USA) were used to monitor the growth of bacteria by measuring the optical density at 600 nm every 30 minutes for 18 hours. The lowest protein concentration without visible bacterial growth was designated as the minimum inhibitory concentration (MIC). Bacteria (10 µL) from the wells at MIC, MIC x 2 and MIC x 3 concentrations of H5 were plated on LB agar (BHI agar for L. monocytogenes) and incubated at 37°C for 18 hours. The lowest concentration of histone H5 without a single colony was designated as the minimum bactericidal concentration (MBC). […]

The subject of assay [2] is methicillin-sensitive Staphylococcus aureus (ATCC 6538). The assay is described as above. To be noted: mean ± SD, n = 3. As for the experimental part:
as §1, §2, §3, §4, §5

Assay [3] relates to Bacillus cereus (ATCC 11778). Described as above. The conditions noted are these: mean ± SD, n = 3. As for the experimental part:
as §1, §2, §3, §4, §5

Assay [4] has as its system methicillin-resistant Staphylococcus aureus (ATCC 29247). The assay is described as above. To be noted: mean ± SD, n = 3. The protocol:
as §1, §2, §3, §4, §5

Assay [5] deals with vancomycin-resistant Enterococcus (ATCC 51299). The assay is described as above. The conditions noted are these: mean ± SD, n = 3. The protocol:
as §1, §2, §3, §4, §5

In assay [6] the test system is Enterococcus faecalis (clinical isolate). The description is as above. The conditions noted are these: mean ± SD, n = 3. The protocol:
as §1, §2, §3, §4, §5

The test system of assay [7] is Escherichia coli K12 (ATCC 29425). Described as above. The protocol:
as §1, §2, §3, §4, §5

For assay [8], the system named is Escherichia coli (O157:H7). Described as above. The protocol: as §1, §2, §3, §4
(§6) The protocol for this step of the project was based on established methods22. […] The microplate was incubated in the EON microplate reader overnight at 206 oscillations/min and at 37°C. […]
This assay is based on a previously described protocol22. The potential for hemolytic activity was assessed using rat red blood cells (RBCs) which were obtained from the University of Ottawa Animal Care Facility and in accordance with the University of Ottawa Animal Care

In assay [9] the test system is Gram-positive and Gram-negative planktonic bacteria. The assay can be described thus: Broth microdilution assay, summary over the planktonic bacteria tested. To be noted: bactericidal when MBC ≤4 times the MIC. As for the experimental part: as §1
The bacterial strains tested in this study were Gram-positive bacteria (Bacillus cereus (ATCC 11778), methicillin-sensitive Staphylococcus aureus (ATCC 6538), methicillin-resistant Staphylococcus aureus (ATCC 29247), Listeria monocytogenes (ATCC 19112), Enterococcus faecalis (clinical isolate) and vancomycin-resistant Enterococcus (ATCC 51299)) and Gram-negative bacteria Escherichia coli K12 (ATCC 29425), Escherichia coli (O157:H7), Pseudomonas aeruginosa (ATCC 15442) and Salmonella typhimurium (ATCC 1535)). Bacterial colonies from glycerol stocks were plated on LB agar plates (BHI agar plates for L. monocytogenes) and incubated overnight at 37 °C. […]
as §6
On the technique in general: In broth dilution the organism is exposed to a series of concentrations in liquid medium.

Where [10] appears, read: broth microdilution, 3 h at 37 °C, then OD600 growth 18 h in LB broth, mean ± SD, n = 3.
The mark [11] stands for this setting: plated on LB agar, 37 °C 18 h, lowest concentration without a single colony, mean ± SD, n = 3.
The mark [12] stands for this setting: value in the figure, representative of three independent trials, each in triplicate.
Where [13] appears, read: broth microdilution, 3 h at 37 °C, then OD600 growth 18 h in LB broth.
[14] abbreviates: plated on LB agar, 37 °C 18 h, lowest concentration without a single colony.

The term MIC denotes the smallest concentration in the dilution series that meets the test's criterion for growth inhibition. The low end stands for a more susceptible organism, the high end for a less susceptible organism. A word on the MBC: it is the lowest tested concentration that kills the bacteria rather than only halting them. Low readings indicate greater bactericidal potency, high ones weaker bactericidal potency.

B1: histone H5: erythrocyte-specific linker histone purified from chicken erythrocytes, 190 amino acids (protein, UniProt P02259 2-190, looked up)
Histone H5: TESLVLSPAPAKPKRVKASRRSASHPTYSEMIAAAIRAEKSRGGSSRQSIQKYIKSHYKVGHNADLQIKLSIRRLLAAGVLKQTKGVGASGSFRLAKSDKAKRSPGKKKKAVRRSTSPKKAARPRKARSPAKKPKATARKARKKSRASPKKAKKPKTVKAKSRKASKAKKVKRSKPRAKSGARKSPKKK
For B1, the MIC in [1] (setting [10]) was 1.9 ± 1.8 µg/mL; in assay [1] (setting [12]), 4 µg/mL; in assay [2] (setting [13]), 3.8 ± 0.4 µg/mL; in [3] (broth microdilution, 3 h at 37 °C with bacteria 1:1 (v/v), then OD600 growth 18 h in LB broth, lowest concentration without visible growth), 3.8 ± 1.7 µg/mL; in assay [4] (setting [13]) it was 2.4 ± 0.8 µg/mL; in [5] (setting [13]), 4 ± 1.2 µg/mL. Further, the MIC in assay [6] (broth microdilution, 3 h at 37 °C, then OD600 growth 18 h in LB broth, highest concentration tested 32 µg/mL) is greater than 32 µg/mL; in assay [7] (setting [10]), 4.9 ± 1.5 µg/mL; in assay [7] (setting [12]), 6.7 µg/mL; in assay [8] (setting [10]), 4.9 ± 1.5 µg/mL; in assay [8] (setting [12]), 6.7 µg/mL. In addition, the MBC in assay [1] (setting [11]) was 1.9 ± 1.8 µg/mL; in assay [2] (setting [14]) it was 4 ± 0 µg/mL; in assay [3] (wells at MIC, MIC x 2, MIC x 3 plated on LB agar, 37 °C 18 h, lowest concentration without a single colony), 3.8 ± 1.7 µg/mL; in [4] (setting [14]) it was 2.7 ± 1.2 µg/mL; in assay [5] (setting [14]), 4.4 ± 1.9 µg/mL; in assay [6] (setting [14]), greater than 32 µg/mL. In addition, the MBC was found to be 6.7 ± 2.3 µg/mL in assay [7] (setting [11]) and 4.9 ± 1.5 µg/mL in assay [8] (setting [11]). The MBC/MIC in assay [9] is reported as no more than 4.

For the origin of these results see publication PMC5799255, “Histone H5 is a potent Antimicrobial Agent and a template for novel Antimicrobial Peptides” (Scientific Reports, 2018).
